According to patent US10562947B2, “Compositions and methods for preventing or treating diseases, conditions or processes characterized by aberrant fibroblast proliferation and extracellular matrix deposition” (MOERAE MATRIX, INC., priority 2011, dated 2020):

Tests used:
Assay in all cases: Kinase Profiling Assay
Type in all cases: biochemical
Conditions in all cases: 100 μM peptide
AMPKα2(h) = AMPKα2(h) (Homo sapiens, UniProt P54646)
Description: (§1) Every kinase activity measurement was conducted in duplicate.
(§2) In addition to determining the IC50 of the compound, the specificity of MK2 inhibitory peptides was assessed by examining activities of all 266 human kinases available for testing in the Millipore kinase profiling service (Table 1).

DRAK1(h) = target: T1, DRAK1(h) (Homo sapiens, UniProt Q9UEE5)
T1 sequence (Q9UEE5 1-414): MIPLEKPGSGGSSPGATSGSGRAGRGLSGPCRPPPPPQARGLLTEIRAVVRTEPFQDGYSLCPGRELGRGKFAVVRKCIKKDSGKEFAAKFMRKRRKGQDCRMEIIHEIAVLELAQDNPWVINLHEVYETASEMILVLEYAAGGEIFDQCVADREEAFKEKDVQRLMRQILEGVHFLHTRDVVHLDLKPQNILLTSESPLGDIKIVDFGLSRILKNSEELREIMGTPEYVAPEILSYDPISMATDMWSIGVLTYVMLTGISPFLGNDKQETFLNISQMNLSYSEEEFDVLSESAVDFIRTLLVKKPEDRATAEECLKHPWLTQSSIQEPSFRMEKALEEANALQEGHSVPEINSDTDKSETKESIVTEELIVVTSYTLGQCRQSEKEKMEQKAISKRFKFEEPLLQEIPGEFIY
Description: as §1, §2

EphA8(h) = target: T2, EphA8(h) (Homo sapiens, UniProt P29322)
T2 sequence (P29322 28-1005): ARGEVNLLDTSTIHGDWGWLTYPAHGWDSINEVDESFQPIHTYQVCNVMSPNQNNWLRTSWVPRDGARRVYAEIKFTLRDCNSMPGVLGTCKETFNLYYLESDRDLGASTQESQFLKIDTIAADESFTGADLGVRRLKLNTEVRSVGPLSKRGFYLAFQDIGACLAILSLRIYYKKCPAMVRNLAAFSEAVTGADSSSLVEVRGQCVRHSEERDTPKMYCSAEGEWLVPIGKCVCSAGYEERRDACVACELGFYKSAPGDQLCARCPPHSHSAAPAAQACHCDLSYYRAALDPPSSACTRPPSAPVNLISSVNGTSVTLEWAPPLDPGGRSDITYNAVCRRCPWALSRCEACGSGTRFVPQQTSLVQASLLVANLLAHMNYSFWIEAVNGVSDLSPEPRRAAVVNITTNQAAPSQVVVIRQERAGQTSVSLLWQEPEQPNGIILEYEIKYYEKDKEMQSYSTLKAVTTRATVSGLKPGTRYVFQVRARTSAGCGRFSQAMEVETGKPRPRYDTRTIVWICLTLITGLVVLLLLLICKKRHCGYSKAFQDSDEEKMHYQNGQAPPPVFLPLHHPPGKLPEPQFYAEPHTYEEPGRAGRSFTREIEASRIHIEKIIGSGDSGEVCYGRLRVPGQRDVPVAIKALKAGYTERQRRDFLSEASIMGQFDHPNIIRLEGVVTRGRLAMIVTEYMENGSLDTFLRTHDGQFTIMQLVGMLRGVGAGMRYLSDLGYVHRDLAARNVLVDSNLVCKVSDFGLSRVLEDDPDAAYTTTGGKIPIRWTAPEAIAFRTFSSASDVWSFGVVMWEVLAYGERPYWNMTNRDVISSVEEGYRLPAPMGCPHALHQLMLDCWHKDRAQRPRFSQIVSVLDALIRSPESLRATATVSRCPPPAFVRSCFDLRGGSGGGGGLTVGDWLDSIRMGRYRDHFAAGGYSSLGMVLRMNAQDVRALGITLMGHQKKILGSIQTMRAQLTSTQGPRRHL
Description: as §1, §2

ErbB4(h) = ErbB4(h) (Homo sapiens, UniProt Q15303)
Description: as §1, §2

Fer(h) = Fer(h) (Homo sapiens, UniProt P16591)
Description: as §1, §2

Flt3(D835Y)(h) = Flt3(D835Y)(h) (Homo sapiens, UniProt P36888, D835Y)
Description: as §1, §2

JNK2α2(h) = JNK2α2(h) (Homo sapiens, UniProt P45984)
Description: as §1, §2

JNK3(h) = JNK3(h) (Homo sapiens, UniProt P53779)
Description: as §1, §2

LIMK1(h) = LIMK1(h) (Homo sapiens, UniProt P53667)
Description: as §1, §2

MRCKβ(h) = MRCKβ(h) (Homo sapiens, UniProt Q9Y5S2)
Description: as §1, §2

Met(M1268T)(h) = Met(M1268T)(h) (Homo sapiens, UniProt P08581, M1250T)
Description: as §1, §2

SAPK4(h) = target: T3, SAPK4(h) (Homo sapiens, UniProt O15264)
T3 sequence (O15264 1-365): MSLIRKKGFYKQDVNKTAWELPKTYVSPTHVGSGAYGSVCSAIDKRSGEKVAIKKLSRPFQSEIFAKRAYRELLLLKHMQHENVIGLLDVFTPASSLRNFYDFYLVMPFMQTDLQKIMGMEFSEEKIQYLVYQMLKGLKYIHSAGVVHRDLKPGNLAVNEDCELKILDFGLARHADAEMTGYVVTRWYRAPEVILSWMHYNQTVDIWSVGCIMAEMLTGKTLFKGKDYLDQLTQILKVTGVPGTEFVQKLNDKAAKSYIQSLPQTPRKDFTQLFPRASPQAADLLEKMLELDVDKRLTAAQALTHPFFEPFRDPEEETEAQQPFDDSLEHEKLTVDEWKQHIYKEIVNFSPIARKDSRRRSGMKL
Description: as §1, §2

SIK(h) = SIK(h) (Homo sapiens, UniProt P57059)
Description: as §1, §2

STK33(h) = STK33(h) (Homo sapiens, UniProt Q9BYT3)
Description: as §1, §2

ZIPK(h) = ZIPK(h) (Homo sapiens, UniProt O43293)
Description: as §1, §2

Sequence of AMPKα2(h) (P54646 whole entry): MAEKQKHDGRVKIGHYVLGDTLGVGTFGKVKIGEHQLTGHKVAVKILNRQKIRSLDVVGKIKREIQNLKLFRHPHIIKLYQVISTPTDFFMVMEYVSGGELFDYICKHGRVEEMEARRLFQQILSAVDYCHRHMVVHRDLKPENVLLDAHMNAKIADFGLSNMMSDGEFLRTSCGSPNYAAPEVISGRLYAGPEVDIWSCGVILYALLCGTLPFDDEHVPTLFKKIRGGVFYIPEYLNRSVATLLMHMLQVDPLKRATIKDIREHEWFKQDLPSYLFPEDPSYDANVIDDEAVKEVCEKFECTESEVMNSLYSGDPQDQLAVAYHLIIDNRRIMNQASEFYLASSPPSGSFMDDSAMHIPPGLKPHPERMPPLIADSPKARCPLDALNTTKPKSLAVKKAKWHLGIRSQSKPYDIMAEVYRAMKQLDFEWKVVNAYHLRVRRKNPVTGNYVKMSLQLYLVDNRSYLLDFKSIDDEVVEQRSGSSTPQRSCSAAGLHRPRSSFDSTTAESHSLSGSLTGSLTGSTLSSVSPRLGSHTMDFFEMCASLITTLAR
Sequence of AMPKα2(h) (Q9Y478 whole entry partner): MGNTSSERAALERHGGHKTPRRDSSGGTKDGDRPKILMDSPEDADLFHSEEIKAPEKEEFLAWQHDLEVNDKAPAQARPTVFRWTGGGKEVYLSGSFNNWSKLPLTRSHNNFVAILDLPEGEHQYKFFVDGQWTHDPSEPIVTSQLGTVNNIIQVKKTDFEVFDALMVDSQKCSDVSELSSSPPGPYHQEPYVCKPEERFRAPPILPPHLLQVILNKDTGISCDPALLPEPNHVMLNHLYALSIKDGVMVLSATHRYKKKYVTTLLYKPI
Sequence of AMPKα2(h) (P54619 whole entry partner): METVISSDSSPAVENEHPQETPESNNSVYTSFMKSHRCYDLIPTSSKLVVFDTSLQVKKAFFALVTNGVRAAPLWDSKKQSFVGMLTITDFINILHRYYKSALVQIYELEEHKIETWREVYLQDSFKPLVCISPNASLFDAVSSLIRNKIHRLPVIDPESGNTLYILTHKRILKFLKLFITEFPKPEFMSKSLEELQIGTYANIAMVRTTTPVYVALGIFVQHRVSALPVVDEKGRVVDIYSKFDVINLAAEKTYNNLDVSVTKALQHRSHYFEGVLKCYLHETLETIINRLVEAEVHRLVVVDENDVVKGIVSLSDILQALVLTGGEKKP
Sequence of STK33(h) (Q9BYT3 whole entry): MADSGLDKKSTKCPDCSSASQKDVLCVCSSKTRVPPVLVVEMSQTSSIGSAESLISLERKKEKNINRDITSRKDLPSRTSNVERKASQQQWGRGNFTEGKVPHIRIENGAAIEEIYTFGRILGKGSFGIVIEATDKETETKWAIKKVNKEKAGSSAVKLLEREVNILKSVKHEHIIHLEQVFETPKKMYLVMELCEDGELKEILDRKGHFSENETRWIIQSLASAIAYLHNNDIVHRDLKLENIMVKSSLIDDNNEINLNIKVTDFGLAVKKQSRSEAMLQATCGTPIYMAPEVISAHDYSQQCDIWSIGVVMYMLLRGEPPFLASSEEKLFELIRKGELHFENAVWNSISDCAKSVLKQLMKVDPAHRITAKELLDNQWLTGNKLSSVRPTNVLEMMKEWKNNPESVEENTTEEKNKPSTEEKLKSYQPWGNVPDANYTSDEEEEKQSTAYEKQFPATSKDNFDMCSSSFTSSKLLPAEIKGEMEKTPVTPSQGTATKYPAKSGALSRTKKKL
Sequence of MRCKβ(h) (Q9Y5S2 whole entry): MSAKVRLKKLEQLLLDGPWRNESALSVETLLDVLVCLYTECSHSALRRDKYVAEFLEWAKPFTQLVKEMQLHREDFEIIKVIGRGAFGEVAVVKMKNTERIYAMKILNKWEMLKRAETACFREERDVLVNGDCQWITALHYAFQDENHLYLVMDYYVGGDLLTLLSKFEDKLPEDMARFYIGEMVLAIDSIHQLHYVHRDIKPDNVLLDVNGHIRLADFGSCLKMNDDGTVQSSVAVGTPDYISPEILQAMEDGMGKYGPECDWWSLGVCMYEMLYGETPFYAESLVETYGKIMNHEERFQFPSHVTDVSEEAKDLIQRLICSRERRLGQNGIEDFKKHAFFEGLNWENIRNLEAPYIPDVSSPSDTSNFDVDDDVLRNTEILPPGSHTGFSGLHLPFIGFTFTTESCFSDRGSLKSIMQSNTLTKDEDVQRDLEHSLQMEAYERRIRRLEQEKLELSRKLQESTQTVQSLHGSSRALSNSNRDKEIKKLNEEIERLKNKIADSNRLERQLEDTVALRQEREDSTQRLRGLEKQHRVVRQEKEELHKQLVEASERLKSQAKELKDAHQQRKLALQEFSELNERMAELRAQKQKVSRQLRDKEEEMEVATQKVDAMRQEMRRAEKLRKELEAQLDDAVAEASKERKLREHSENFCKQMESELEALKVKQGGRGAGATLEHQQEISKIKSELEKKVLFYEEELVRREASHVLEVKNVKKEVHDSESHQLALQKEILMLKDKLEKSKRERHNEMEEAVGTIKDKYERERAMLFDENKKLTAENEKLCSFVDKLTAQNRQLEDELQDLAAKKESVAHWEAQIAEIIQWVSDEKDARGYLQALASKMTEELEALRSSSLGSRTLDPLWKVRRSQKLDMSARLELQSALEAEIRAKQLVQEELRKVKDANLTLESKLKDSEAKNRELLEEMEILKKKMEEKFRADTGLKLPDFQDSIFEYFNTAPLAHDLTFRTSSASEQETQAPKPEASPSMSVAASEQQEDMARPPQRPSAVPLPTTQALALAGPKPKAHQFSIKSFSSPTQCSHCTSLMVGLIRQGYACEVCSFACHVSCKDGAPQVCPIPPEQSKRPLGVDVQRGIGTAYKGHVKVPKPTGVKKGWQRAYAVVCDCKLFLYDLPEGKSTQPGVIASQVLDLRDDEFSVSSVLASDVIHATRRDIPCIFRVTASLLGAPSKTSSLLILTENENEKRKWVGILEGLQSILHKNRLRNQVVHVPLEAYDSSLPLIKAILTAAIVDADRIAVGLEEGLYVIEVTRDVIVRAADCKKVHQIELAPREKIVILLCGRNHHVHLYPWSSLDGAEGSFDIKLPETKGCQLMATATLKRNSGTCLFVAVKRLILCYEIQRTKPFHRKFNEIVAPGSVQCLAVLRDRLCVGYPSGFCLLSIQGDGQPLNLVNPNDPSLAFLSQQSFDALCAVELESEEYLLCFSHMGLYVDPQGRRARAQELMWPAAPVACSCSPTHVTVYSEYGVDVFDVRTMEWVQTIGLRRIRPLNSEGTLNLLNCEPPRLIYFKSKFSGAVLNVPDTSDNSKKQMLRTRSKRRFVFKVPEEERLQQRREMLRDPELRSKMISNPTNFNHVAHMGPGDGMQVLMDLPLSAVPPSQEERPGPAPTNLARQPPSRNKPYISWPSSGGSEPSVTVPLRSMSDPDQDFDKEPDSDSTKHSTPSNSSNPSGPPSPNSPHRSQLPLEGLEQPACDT
Sequence of Fer(h) (P16591 whole entry): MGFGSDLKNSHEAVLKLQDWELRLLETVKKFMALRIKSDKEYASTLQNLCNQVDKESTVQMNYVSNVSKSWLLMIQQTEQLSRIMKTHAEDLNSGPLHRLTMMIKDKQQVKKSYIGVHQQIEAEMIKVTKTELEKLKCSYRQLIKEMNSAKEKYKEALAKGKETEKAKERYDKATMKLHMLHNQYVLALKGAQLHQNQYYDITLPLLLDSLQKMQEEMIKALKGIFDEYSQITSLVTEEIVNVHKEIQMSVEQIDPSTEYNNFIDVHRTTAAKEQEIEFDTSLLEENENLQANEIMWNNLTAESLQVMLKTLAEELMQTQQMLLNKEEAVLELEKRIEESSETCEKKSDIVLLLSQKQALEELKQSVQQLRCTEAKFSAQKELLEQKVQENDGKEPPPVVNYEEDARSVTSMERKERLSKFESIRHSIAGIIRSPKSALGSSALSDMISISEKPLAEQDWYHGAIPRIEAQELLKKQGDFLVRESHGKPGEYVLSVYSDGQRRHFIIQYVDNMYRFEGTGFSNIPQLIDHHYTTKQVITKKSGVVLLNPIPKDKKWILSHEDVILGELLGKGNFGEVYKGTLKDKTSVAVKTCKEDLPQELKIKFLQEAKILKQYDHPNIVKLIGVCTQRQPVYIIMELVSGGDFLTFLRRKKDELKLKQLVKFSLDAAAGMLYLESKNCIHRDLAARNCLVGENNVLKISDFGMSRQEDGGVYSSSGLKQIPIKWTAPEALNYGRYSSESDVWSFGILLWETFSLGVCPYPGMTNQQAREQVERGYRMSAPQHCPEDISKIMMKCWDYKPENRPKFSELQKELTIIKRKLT
Sequence of JNK3(h) (P53779 whole entry): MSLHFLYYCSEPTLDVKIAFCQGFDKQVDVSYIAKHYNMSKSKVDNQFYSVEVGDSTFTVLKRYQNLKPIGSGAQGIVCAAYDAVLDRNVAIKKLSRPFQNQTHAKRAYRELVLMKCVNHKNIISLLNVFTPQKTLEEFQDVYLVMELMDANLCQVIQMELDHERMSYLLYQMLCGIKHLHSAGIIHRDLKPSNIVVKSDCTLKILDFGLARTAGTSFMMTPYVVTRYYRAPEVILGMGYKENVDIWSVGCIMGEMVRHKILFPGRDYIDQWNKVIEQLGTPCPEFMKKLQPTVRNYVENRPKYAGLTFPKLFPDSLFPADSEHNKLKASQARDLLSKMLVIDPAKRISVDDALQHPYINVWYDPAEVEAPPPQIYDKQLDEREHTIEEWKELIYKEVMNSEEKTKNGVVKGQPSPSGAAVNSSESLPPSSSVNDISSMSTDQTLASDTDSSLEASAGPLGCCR

Sequence	AMPKα2(h) % activity (AMPKα2(h))	DRAK1(h) % activity (DRAK1(h))	EphA8(h) % activity (EphA8(h))	ErbB4(h) % activity (ErbB4(h))	Fer(h) % activity (Fer(h))	Flt3(D835Y)(h) % activity (Flt3(D835Y)(h))	JNK2α2(h) % activity (JNK2α2(h))	JNK3(h) % activity (JNK3(h))	LIMK1(h) % activity (LIMK1(h))	MRCKβ(h) % activity (MRCKβ(h))	Met(M1268T)(h) % activity (Met(M1268T)(h))	SAPK4(h) % activity (SAPK4(h))	SIK(h) % activity (SIK(h))	STK33(h) % activity (STK33(h))	ZIPK(h) % activity (ZIPK(h))
FAKLAARLYRKALARQLGVAA [MMI-0300]	54%	14%	93%	40%	130%	80%	98%	89%	88%	83%	255%	96%	66%	45%	28%
HRRIKAWLKKIKALARQLGVAA (Mammalian) [MMI-0500]	9%	8%	337%	2%	196%	65%	81%	171%	87%	−10%	239%	48%	40%	16%	1%
KAFAKLAARLYRKALARQLGVAA [MMI-0400]	58%	14%	146%	0%	108%	71%	96%	70%	92%	71%	265%	91%	68%	52%	13%
YARAAARQARAKALNRQLGVA (Mammalian) [MMI-0200]	88%	34%	133%	82%	101%			90%			143%			98%	67%
